Test results published in patent EP3222635A1.
Values belong to the molecule of their own block, whether it stands above or below them.

Tests used:
[1] = target: Soluble human P-selectin (human) (UniProt P16109); experiment: SPR (SensiQ), antibody captured on protein G, soluble human P-selectin 100nM-1.56nM as analyte
[2] = target: Soluble human P-selectin (human) (UniProt P16109); experiment: SPR (SensiQ), reference G1

UniProt P16109, sequence (P16109 42-771 limits assumed): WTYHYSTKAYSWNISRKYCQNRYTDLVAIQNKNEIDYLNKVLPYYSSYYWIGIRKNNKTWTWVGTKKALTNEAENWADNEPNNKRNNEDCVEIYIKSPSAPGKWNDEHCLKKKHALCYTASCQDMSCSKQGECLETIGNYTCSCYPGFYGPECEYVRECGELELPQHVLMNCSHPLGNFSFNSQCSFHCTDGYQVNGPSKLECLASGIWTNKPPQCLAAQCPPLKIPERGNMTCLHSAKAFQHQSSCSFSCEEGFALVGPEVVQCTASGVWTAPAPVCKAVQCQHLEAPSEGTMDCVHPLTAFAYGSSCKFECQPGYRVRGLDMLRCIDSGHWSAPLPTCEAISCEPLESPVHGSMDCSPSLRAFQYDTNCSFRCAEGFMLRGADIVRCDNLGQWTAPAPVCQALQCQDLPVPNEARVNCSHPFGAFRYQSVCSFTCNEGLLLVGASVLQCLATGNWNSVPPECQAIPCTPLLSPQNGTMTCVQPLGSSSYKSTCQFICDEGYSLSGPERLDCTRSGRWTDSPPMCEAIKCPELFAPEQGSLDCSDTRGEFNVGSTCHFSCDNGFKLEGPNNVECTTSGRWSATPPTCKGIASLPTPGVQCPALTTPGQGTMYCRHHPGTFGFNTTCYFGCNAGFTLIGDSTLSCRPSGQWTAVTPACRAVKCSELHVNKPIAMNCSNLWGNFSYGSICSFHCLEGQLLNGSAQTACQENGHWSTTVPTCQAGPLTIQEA

- Kd [1]: 8.94 nM
- koff [1]: 0.056 s⁻¹
- kon [1]: 6.3e+06 M⁻¹ s⁻¹
Molecule: G1 mouse monoclonal anti-P-selectin antibody

- Kd [1]: 5.89 nM
- koff [1]: 0.0131 s⁻¹
- kon [1]: 2.22e+06 M⁻¹ s⁻¹
- Ka (association constant) higher than G1 [2]: 64.7%
- improvement in the binding affinity compared to G1 [2]: 34%
B1: hSel001 humanized IgG2 anti-P-selectin antibody (antibody, from another filing, V domains shown)
VH: QVQLVQSGAEVKKPGASVKVSCKVSGYTFTSYDINWVRQAPGKGLEWMGWIYPGDGSIKYNEKFKGRVTMTVDKSTDTAYMELSSLRSEDTAVYYCARRGEYGNYEGAMDYWGQGTLVTVSS
VL: DIQMTQSPSSLSASVGDRVTITCKASQSVDYDGHSYMNWYQQKPGKAPKLLIYAASNLESGVPSRFSGSGSGTDFTLTISSLQPEDFATYYCQQSDENPLTFGGGTKVEIKR
